Key:
TβRII = TβRII protein in human hair germinal matrix cells treated with HAPLN1 by concentration (Western blotting); type: cell-based; settings: 20 ng/mL of HAPLN1, 24 hours, serum-free medium
Method: HAPLN1 was treated on human hair germinal matrix cells by concentration. Specifically, human hair germinal matrix cells (HHGMC) were dispensed into a poly-D-lysine 6-well plate at 5.0×10^4 per well and cultured for 24 hours. After 24 hours, the medium was removed and replaced with a new serum-free medium. HAPLN1 was treated with 0, 5, 10, 20 ng/mL and incubated for 24 hours. After collecting cells, a lysis buffer (25 mM Tris-HCl, 1 mM EDTA, 0.1% Triton-X100, phosphatase inhibitor, and protease inhibitor) was added, and all the cells were broken through sonication. TβRII in the sample was measured using Western blotting. The optical density of TβRII was compared to that of GAPDH using a densitometer (that is, TβRII optical concentration GAPDH optical concentration). Here, GAPDH was used as a loading control.

HAS2 = HAS2 protein in human hair germinal matrix cells deficient in endogenous HA (4-MU); type: cell-based; settings: 4-MU-treated cells; HAPLN1 25 ng/mL; TGF-β2 2 ng/mL
Method: 4-MU (4-methylumbelliferone) is an inhibitor of HA-producing hyaluronan synthase 2 (HAS2), which produces HA. In order to confirm the effect of HA produced in cells, HA production in cells was inhibited using 4-MU.
The human hair germinal matrix cells, in which the endogenous HA was inhibited by treating 4-MU, were dispensed into a poly-D-lysine 6-well plate at a concentration of 5.0×10^4 per well and cultured for 24 hours. After 24 hours, the medium was removed and replaced with a new serum-free medium. HAPLN1 was treated with 25 ng/mL, and after 1 hour, TGF-β2 (2 ng/mL) was treated. After 23 hours, cells were collected, a lysis buffer (25 mM Tris-HCl, 1 mM EDTA, 0.1% Triton-X100, phosphatase inhibitor, and protease inhibitor) was added, and all the cells were broken through sonication. HAS2 and TβRII in the sample were measured using Western blotting. The optical density of each of HAS2 and TβRII was compared to that of GAPDH using a densitometer.

B1: hyaluronan and proteoglycan link protein 1 (protein, UniProt P10915 16-354, looked up)
Hyaluronan and proteoglycan …: DHLSDNYTLDHDRAIHIQAENGPHLLVEAEQAKVFSHRGGNVTLPCKFYRDPTAFGSGIHKIRIKWTKLTSDYLKEVDVFVSMGYHKKTYGGYQGRVFLKGGSDSDASLVITDLTLEDYGRYKCEVIEGLEDDTVVVALDLQGVVFPYFPRLGRYNLNFHEAQQACLDQDAVIASFDQLYDAWRGGLDWCNAGWLSDGSVQYPITKPREPCGGQNTVPGVRNYGFWDKDKSRYDVFCFTSNFNGRFYYLIHPTKLTYDEAVQACLNDGAQIAKVGQIFAAWKILGYDRCDAGWLADGSVRYPISRPRRRCSPTEAAVRFVGFPDKKHKLYGVYCFRAYN
notes: extracellular matrix protein found in cartilage; stabilizes aggregates of hyaluronic acid and proteoglycans
TβRII protein (optical density compared to GAPDH) (TβRII): increased
HAS2 level (HAS2): recovered

Reference: patent publication US20220202899A1, “COMPOSITION FOR PREVENTION OR TREATMENT OF HAIR LOSS INCLUDING HAPLN1” (HAPLNSCIENCE INC., priority 2019, published 2022)
